The values that follow are results of earlier work, collected in publication PMC8946809.

The series addresses His516 (UniProt position 538, FRPNYHGVGTC). Put plainly: kinetics. The settings on record: enzyme-substrate complex.

Consider “Glucose oxidase (GOx) (Aspergillus niger)”, for which the pKa is given as 6.9–7.8.
